Measurements published in paper PMC5902676 (Biochemical Journal, 2018).

Molecular target: T1, HybC (large subunit of E. coli Hydrogenase-2), processed form of 552 residues (E. coli, UniProt P0ACE0 1-552)
T1 sequence (looked up): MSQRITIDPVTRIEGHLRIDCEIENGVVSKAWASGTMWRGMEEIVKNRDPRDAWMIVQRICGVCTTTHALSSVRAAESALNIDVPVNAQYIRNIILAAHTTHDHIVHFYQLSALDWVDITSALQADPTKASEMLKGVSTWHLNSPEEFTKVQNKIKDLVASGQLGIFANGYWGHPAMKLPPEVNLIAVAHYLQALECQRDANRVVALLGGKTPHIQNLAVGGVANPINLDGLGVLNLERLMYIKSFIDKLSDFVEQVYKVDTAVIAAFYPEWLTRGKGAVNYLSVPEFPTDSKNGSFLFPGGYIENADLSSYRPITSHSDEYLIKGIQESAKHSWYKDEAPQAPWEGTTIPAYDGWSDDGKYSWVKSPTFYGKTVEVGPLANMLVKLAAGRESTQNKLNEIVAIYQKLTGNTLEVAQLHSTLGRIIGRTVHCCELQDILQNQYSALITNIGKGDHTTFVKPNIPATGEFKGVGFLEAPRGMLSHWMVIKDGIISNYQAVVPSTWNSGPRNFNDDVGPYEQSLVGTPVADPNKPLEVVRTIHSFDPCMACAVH
Assay: crystal structure

binding result: binds
B1: HybO ΔTat ΔTM with C-terminal His-tag (small subunit of E. coli Hydrogenase-2, encoded by plasmid pO^C) (domain or fragment, UniProt P69741 38-330, looked up)
chain: EMAESVTNPQRPPVIWIGAQECTGCTESLLRATHPTVENLVLETISLEYHEVLSAAFGHQVEENKHNALEKYKGQYVLVVDGSIPLKDNGIYCMVAGEPIVDHIRKAAEGAAAIIAIGSCSAWGGVAAAGVNPTGAVSLQEVLPGKTVINIPGCPPNPHNFLATVAHIITYGKPPKLDDKNRPTFAYGRLIHEHCERRPHFDAGRFAKEFGDEGHREGWCLYHLGCKGPETYGNCSTLQFCDVGGVWPVAIGHPCYGCNEEGIGFHKGIHQLANVENQTPRSQKPDVNAKEGG
